We go through four molecules from patent US6350573B1, “Methods for identifying herbicidal agents that inhibit D1 protease” (E. I. du Pont de Nemours and Company, priority 1998, dated 2002).

One data set deals with wheat D1 protease. Description: In vitro high-throughput assay with LF-1 thylakoid membrane fragments containing pre-D1, detecting the mature D1 enzyme product. It is filed as biochemical. Conditions: 7 mM Z-LDLA-CMK; D1 protease pre-incubated with it for 1 h at pH 7.0; same assay without inhibitor 0.141 OD; without D1P 0.023 OD. From the text:
The assay was capable of detecting both type of products. Because this assay used isolated thylakoid membrane containing the D1 pre-protein substrate the assay could be run at a pH similar to that found in the whole plant.
The PSII-enriched thylakoid membrane fragment was isolated from Scenedesmus LF-1 mutant cells using a mild TRITON X-100-treatment as follows:
Scenedesmus cells were broken in a “bead-beater” (Biospec Products, Bartlesville, Okla.) in an ice-water bath with 1-mm diameter glass beads using 10 bursts of 45 sec each. […]
When using the type 2 HRP conjugated primary antibody […] of colorimetric substrate, TMB (Kirkgaard & Perry Laboratories, Inc., Gaithersburg, Md.) or fluorescent substrate, N-acetyl-3,7-dihydroxyphenoxazine (A6550, Molecular Probes, Inc., Eugene, Oreg.) or chemiluminescence substrate, BM Chemiluminescence ELISA Reagent (Boehringer Mannheim Corp., Indianapolis, Ind.) was added to each well. […] Next the substrate was transfered to a regular plastic 96-well microtiter plate using the manifold and vacuum and then read for absorption or fluorescence or chmiluminescence intensity. […]

Data set [1] deals with D1 pre-protein (unprocessed D1 polypeptide) of the Scenedesmus obliquus LF-1 mutant, in PSII core complexes or thylakoid membrane fragments.
The target of data set [2] is T1, internally quenched fluorescent substrate Ac-NAHN(K-Dnp)PLDLAAVE(K-Mca)PSING-OH.
T1 chain: AHNKPLDLAAVEKPSING

Where a SMILES comes first, the peptide text is derived from it. The star is where a group is joined. Cbz = O=C(OCc1ccccc1)*; CH2Cl = ClC*

On to `CC(C)C[C@H](NC(=O)OCc1ccccc1)C(=O)N[C@@H](CC(=O)O)C(=O)N[C@@H](CC(C)C)C(=O)N[C@@H](C)C(=O)CCl` [Z-LDLA-CMK, Z-Leu-Asp-Leu-Ala-CH2Cl] (Cbz-LDLA-CH2Cl), for which the “Type2 AB and TMB, Absorption change, With D1P” value in the data set with wheat D1 protease was found to be 0.081 OD.

B1: wheat D1 protease purified from wheat leaves (Triticum aestivum, var. Fidel) (protein)
chain: LTEENLLFLEAWRAVDRAYYDKSFNGQSWFRYRERALRDDPMNTRQETYAAIKKMLATLDDPFTRLLEPEKFKSLRSGTQGALTGVGLSIGYPLALKGSPAGLSVMSAAPGGPAEKAGIVSGDVILAIDDTSAQDMDIYDAADRLQGPEGSSIDLTILSGADTRHVVLKRERYTLNPVRSRMCEIPGSEDSSKIGYIKLTTFNQNAAGSVKEAIKKLREKNVKAFVLDLRNNSGGLFPEGIEIAKIWMDKGVIVYICDSRGVRDIYEADGASTIAASEPLVVLVNKGTASASEILAGALKDNKRAVVYGEPTYGKGKIQSVFALSDGSGLAVTVARYETPAHTDIDKVGVTPDRPLPASFPTDEDGFCSCLRDPASCNLNAARLFVRS
On to B1, for which, in data set [1], the Type1 AB and ATTOPHOS (Fluorescence intensity), With D1P was 1070 RU; the Type1 AB and PNP (Absorbance OD 450-650), With D1P amounted to 0.365 OD; the Type2 AB and A6550 (Fluorescence intensity), With D1P was determined as 263 RU; the Type2 AB and BM (Chemiluminescence intensity), With D1P is 33 RU. For the same molecule, in data set [1], the Type2 AB and TMB (Absorbance at OD 650-450), With D1P was 0.141 OD; the “fluorescamine fluorescence of the released C-terminal D1-tail, Well with D1 protease” value was found to be 515 ± 10 relative units. Further, the “fluorescence intensity of the internally quenched substrate (excitation 320 nm, emission 409 nm)” value in data set [2] was “samples containing active enzyme were measured at 3000 fluorescence units”.

B2: recombinant wheat D1 protease expressed in E. coli from pET-32a(+) (thioredoxin-D1 protease fusion, refolded) (protein)
chain: B1 chain
Turning to B2, the “specific activity in the microtiter plate ELISA assay” value in data set [1] is “The specific activity of the recombinant enzyme, expressed in relative units, is close to that of the natural enzyme isolated from wheat leaves”.

B3: D1 protease from Scenedesmus obliquus (protein)
chain: VTSEQLLFLEAWRAVDRAYVDKSFNGQSWFKLRETYLKKEPMDRRAQTYDAIRKLLAVLDDPFTRFLEPSRLAALRRGTAGSVTGVGLEITYDGGSGKDVVVLTPAPGGPAEKAGARAGDVIVTVDGTAVKGLSLYDVSDLLQGEADSQVEVVLHAPGAPSNTRTLQLTRQKVTINPVTFTTCSNVAAAALPPGAAKQQLGYVRLATFNSNTTAAAQQAFTELSKQGVAGLVLDIRNNGGGLFPAGVNVARMLVDRGDLVLIADSQGIRDIYSADGNSIDSATPLVVLVNRGTASASEVLAGALKDSKRGLIAGERTFGKGLIQTVVDLSDGSGVAVTVARYQTPAGVDINKIGVSPDVQLDPEVLPTDLEGVCRVLGSDAAPRLFG
Regarding B3, the “microtiter plate ELISA of D1 protease activity (color reaction, percent of pre-D1 cleaved)” value in data set [1] is “the intensity of the color reaction is shown to be proportional to enzyme concentration up to approximately 20% of pre-D1 cleaved”.
